Results: patent US5846764, “Materials and methods relating to proteins that interact with casein kinase I” (ICOS Corporation, dated 1998)

Columns and labels:
[1] = biological target: lexA::HRR25 fusion (pBTM116::HRR25) (E. coli; S. cerevisiae) (UniProt P0A7C2); assay: yeast two-hybrid (lexA bait, GAL4 prey), liquid β-galactosidase assay
[2] = biological target: lexA::HRR25 K→R fusion (pBTM116::HRR25K→R) (E. coli; S. cerevisiae) (UniProt P0A7C2); assay: as above
[3] = biological target: lexA::HRR25 non-catalytic domain fragment (pBTM116::Non-catalytic) (E. coli; S. cerevisiae) (UniProt P0A7C2); assay: as above
[4] = biological target: T1, lexA DNA binding domain alone (pBTM116 vector) (E. coli, UniProt P0A7C2); assay: yeast two-hybrid (lexA bait, GAL4 activation domain prey), liquid β-galactosidase assay, normalized to vector alone
[5] = biological target: T1, lexA DNA binding domain alone (pBTM116 …); assay: yeast two-hybrid, liquid β-galactosidase assay
Procedure: To construct pairwise combinations between pBTM116-based plasmids and pGAD-based plasmids, yeast strains of opposite mating types were replica plated in a crossed pattern on YEPD medium (Bio101) and were allowed to mate for 18 hours. Diploid cells were selected by a second replica plating onto SD-leucine, -tryptophan medium to select for cells that contained both pBTM116-type and pGAD-type plasmids. The isolated diploids were grown in liquid SD-leucine, -tryptophan medium to a cell density of 2×10^7 cells/ml and the level of interaction of the kinase and interacting protein, as determined by beta-galactosidase activity, was determined from cells that were lysed by adding 3 drops of chloroform and 50 µl of 0.1 % SDS to 2×10^6 cells suspended in 0.1 ml of Z buffer and subsequently adding 0.2 ml of the chromogenic substrate o-nitrophenyl-β-D-galactoside. β-galactosidase assays were terminated by adding 0.5 ml of 1M Na_2CO_3 and activity was measured by reading absorbance at 420 nm using a Milton Roy spectrophotometer (Rochester, N.Y.). In this assay, the degree of protein/protein interaction is directly proportional to the level of β-galactosidase activity. […] Values were normalized to vector alone controls.

[6] = biological target: lexA::NUF1 fusion (pBTM116::NUF1) (E. coli; S. cerevisiae) (UniProt P0A7C2); assay: yeast two-hybrid (lexA bait, GAL4 activation domain prey), liquid β-galactosidase assay, normalized to vector alone
[7] = biological target: lexA::HRR25 catalytic domain fragment (pBTM116::Kinase domain) (E. coli; S. cerevisiae) (UniProt P0A7C2); assay: as above
Sequence of lexA::HRR25 catalytic domain fragment (pBTM116::Kinase domain) (E. coli; S. cerevisiae) (P0A7C2 1-202, tags or fused parts left off): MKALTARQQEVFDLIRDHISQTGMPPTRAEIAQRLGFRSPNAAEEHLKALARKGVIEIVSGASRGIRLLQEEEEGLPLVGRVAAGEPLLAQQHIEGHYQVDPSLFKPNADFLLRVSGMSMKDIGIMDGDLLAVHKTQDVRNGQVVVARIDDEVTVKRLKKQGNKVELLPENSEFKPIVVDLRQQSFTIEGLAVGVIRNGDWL

[8] = biological target: lexA::HRR25 fusion (pBTM116::HRR25) (E. coli; S. cerevisiae) (UniProt P0A7C2); assay: as above
[9] = biological target: lexA::HRR25 K→R fusion (pBTM116::HRR25K→R) (E. coli; S. cerevisiae) (UniProt P0A7C2); assay: as above
[10] = biological target: lexA::HRR25 non-catalytic domain fragment (pBTM116::Non-catalytic) (E. coli; S. cerevisiae) (UniProt P0A7C2); assay: as above
[11] = biological target: lexA::HRR25 non-catalytic domain fragment (pBTM116::Non-catalytic) (E. coli; S. cerevisiae, UniProt P0A7C2); assay: as above

Molecule	units of β-galactosidase activity [1] [units]	units of β-galactosidase activity [2] [units]	units of β-galactosidase activity [3] [units]	relative β-galactosidase activity [4]	binding result [5]	relative β-galactosidase activity [6]	relative β-galactosidase activity [7]	relative β-galactosidase activity [8]	relative β-galactosidase activity [9]	relative β-galactosidase activity [10]	relative β-galactosidase activity [11]
GAL4::CIN8 fusion (pGAD::CIN8) (from UniProt P27895)	5	28	< 0.1	–	–	–	–	–	–	–	–
GAL4::KAR3 fusion (pGAD::KAR3) (from UniProt P17119)	15	75	60	–	–	–	–	–	–	–	–
GAL4::KIP2 fusion (pGAD::KIP2) (from UniProt P28743)	10	16	< 0.1	–	–	–	–	–	–	–	–
GAL4::KIP1 fusion (pGAD::KIP1) (from UniProt P28742)	16	55	70	–	–	–	–	–	–	–	–
GAL4 activation domain::TIH1 library clone (pGAD::TIH1) (other) DQLKSYAEEQLKLLLGITKEEQIDPGRELLNMLHTAVQANSNNNAVSNGQVPSSQELQHLKEQSGEHNQQKDQQSSFSSQQQPSIFPSLSEPFANNKNVIPPTMPMANVFMSNPQLFATMNGQPFAPFPFMLPLTNNSNSANPIPTPVPPNFNAPPNPMAFGVPNMHNLSGPAVSQPFSLPPAPLPRDSGYSSSSPGQLLDILNSKKPDSNVQSSKKPKLKILQRGTDLNSLKQNNNDETAHSNSQALLDLLKKPTSSQKIHASKPDTSFLPNDSVSGIQDAEYEDFESSSDEEVETARDERNSLNVDIGVNVMPSEKDSRRSQKEKPRNDASKTNLNASAESNSVEWGAG	–	–	–	< 5	no binding (tested: <5)	< 5	820	850	100	< 5	–
GAL4 activation domain::TIH2 library clone (pGAD::TIH2) (other) RSSSNLSLDSLSKMSGSGNNNTSNNQLFSTLMNGINANSMMNSPMNNTINNNSSNNNNSGNIILNQPSLSAQHTSSSLYQTNVNNQAQMSTERFYAPLPSTSTLPLPPQQLDFNDPDTLEIYSQLLLFKDREKYYYELAYPMGISASHKRIINVLCSYLGLVEVYDPRFIIIRRKILDHANLQSHLQQQGQMTSAHPLQPNSTGGSMNRSQSYTSLLQAHAAAAANSISNQAVNNSSNSNTINSNNGNGNNVIINNNSASSTPKISSQGQFSMQPTLTSPKMNIHHSSQYNSADQPQQPQPQTQQNVQSAAQQQQSFLRQQATLTPSSRIPSGYSANHYQINSVNPLLRNSQISPPNSQIPINSQTLSQAQPPAQSQTQQRVPVAYQNASLSSQQLYNLNGPSSANSQSQLLPQHTNGSVHSNFSYQSYHDESMLSAHNLNSADLIYKSLSHSGLDDGLEQGLNRSLSGLDLQNQNKKNLW	–	–	–	< 5	no binding (tested: <5)	< 5	160	650	150	–	< 5
GAL4 activation domain::TIH3 library clone (pGAD::TIH3) (other) IKPMVESNCKNGQISATKDLVKLVEEFVEKYVELSKEKADTLKPLPSVTSFGSPRKVAAPELSMVQPESKPEAEAEISEIGSDRWRFNWVNIIILVLLVLNLLYLMKLNKKMDKLTNLMTHKDEVVAHATLLDIPAQVQWSRPRRGDVL	–	–	–	< 5	no binding (tested: <5)	10	130	100	30	< 5	–
GAL4 activation domain::TIH4 library clone (pGAD::TIH4) (protein) RRMISELKNRSNIGEPLTKSSNESTYKDIKATGNDGDPNLALMRAENRVLKYKLENCEKLLDKDVVDLQDSEIMEIVEMLPFEVGTLLETKFQGLESQIRQYRKYTQKLEDKIMALEKSGHTAMSLTGCDGTEVIELQKMLERKDKMIEALQSAKRLRDRALKPLINTQQSPHPVVDNDK	70	66	–	–	–	–	–	–	–	–	–
